The record followed here is the DeepSol protein solubility set.

This series is described as follows: soluble on expression in E. coli; label from the status in PepcDB or PDB records.
“MQQNTSLYDSLNVTAAASTSEIKKAYRNAALKYHPDKNNHTEESKRKFQEICQAYEILKDNRLRALYDQYGTTDEVLIQEQQAQAQRQQAGPFSSSSNFDTEAMSFPDLSPGDLFAQFFNSSATPSSNGSKSSFNFSFNNSSTPSFSFVNGSGVNNLYSSSAKYNSNDEDHHLDRGPDIKHNLKCTLKELYMGKTAKLGLNRTRICSVCDGHGGLKKCTCKTCKGQGIQTQTRRMGPLVQSWSQTCADCGGAGVFVKNKDICQQCQGLGFIKERKILQVTVQPGSCHNQLIVLTGEGDEVISTKGGGHEKVIPGDVVITILRLKDPNFQVINYSNLICKKCKIDFMTSLCGGVVYIEGHPSGKLIKLDIIPGEILKPGCFKTVEDMGMPKFINGVRSGFGHLYVKFDVTYPERLEPENAKKIQNILANDKYIKAERSTMETADSDCYCDLEKSYDSVEEHVLSSFEAPNLNNEVIEDDDLGDLINERDSRKRNNRRFDESNINNNNETKRNKYSSPVSGFYDHDINGY”: the “soluble on expression in E. coli” value was “not soluble”.

Take “DTDMGLTRRLPPLSPNKEKQPDVEINDRNIMRILVNKNDEIILLKKGATGSQDQIIPVKLSDLRRITKEFIANPTNRADLPEKEKRE”: the “soluble on expression in E. coli” value is recorded as “not soluble”.

In the case of “MKFFVFALILALMLSMTGADSHAKRHHGYKRKFHEKHHSHRGYRSNYLYDNLEHHHHHH”, the “soluble on expression in E. coli” value is “not soluble”.

As to “MRKPTDTLPVNLQRRRLLCAAGALLLSPLAHAGAQREETLADDVASVMRSSVGSVNPPRLVFDNPKEGERWLSAMSARLARFVPEEEERRRLLVNIQYESSRAGLDTQIVLGLIEVESAFRQYAISGVGARGLMQVMPFWKNYIGKPAHNLFDIRTNLRYGCTILRHYRNLEKGNIVRALARFNGSLGSNKYPNAVLGAWRNRWQWR”, the “soluble on expression in E. coli” value is recorded as “not soluble”.

Turning to “MGSDKIHHHHHHMQDSMYSALFGALTNEHRLNNIANNLANVNTTGYKRDVLAFKDTFLSFAHDEVMEPIPNVRSKKMFPEPIHIAKPRIALAKTDFSQGSLKLTGGTLDMAVHGDGFFKVRTPDGEFYTRNGNFRQTSDGQLVTQQGWPVLGAGGDIQIPPRANLTVAENGTIYADGEEIGQVQVVTLDNLDALEKQGSNLFRLREGAEAQEVPVENPVVLQGFLETANVEVVTEMVNMIEANRQFEAYQKIMQTTDAVDKMATTQVGRGRA”, the “soluble on expression in E. coli” value is given as “not soluble”.

Turning to “MAERKYFGTDGVRGKVGQFPITPDFALKLGWAAGKILATQGTKQVLIGKDTRISGYMLESALEAGLAAAGLSAAFVGPMPTPAVAYLTRTFRAEAGIVISASHNPYYDNGIKFFSANGEKLPDEVEEAIEALLDQPMDYVESDQLGKAIRINDAAGRYIEFCKGTFPADASLKGYKIVVDCAHGATYHIAPNVMRELGAEVIEIGTHPNGLNINDKCGATDISALQQAVLTSKADLGVAYDGDGDRIIMVDHLGNKVDGDQILFIIAREALRSGKLKGGVVGTLMSNMGLEIALKHLAIPFTRANVGDRYVLEQLKEKNWKLGGENSGHIIVLDKNTTGDGIIASLEVLAAMEAHKMSLNDLTHAVPLFPQVLLNVRFDGGNNPLENAAVKALAKDIETRLVGKGRILLRKSGTEPLIRVMVECEDAVLAQQYAEEIVSAIQNH”, the “soluble on expression in E. coli” value is “not soluble”.

For “MTPYNEREVLKLLQEESTQRKGFELIVAQYSEQLYWQIRRMVLSHEDANDLLQNTFIKAWTNIDYFRAEAKLSTWLYRIALNECLTFLNRQRATTTVAIDDPEAAIVQKLESDPYYSGDQVQMLLQKALLTLPEKQRMVFNLKYYQEMKYEEMSEIFGTSVGALKASYHHAVKKIEKFLEEVD”, the “soluble on expression in E. coli” value is reported as “not soluble”.

Turning to “MGSDKIHHHHHHMPAIAFIDISGSPFQAGQALGRFGASAVRDHLLHTDAWRSVMRWRGTEQAALMAAQVQARFPRIWDELKGLADGLGLPLEDTFLWNCRGDVWAMSPDGCTTVQVPGAHRRRISHNEDGDPGFSGHCAIAQCHIAGSPGFASFVYPGSLPGHTFAATELGLAMTVNNLRYRNTTAGVPRMVLTRAVLDAPDLDKALAVLRDNPHAGGFHLTLGHCRSTALLSVEFSAYGCSVLDITQTSMHANHAIHPQMRDHPQIVTGSSGHRQMRGDTVIADAARDGREIDPLELLADTAHPSFPIYRDDPHDSDGENTQATADMRVGPTCIEWEVYEQPGTAPRYRMINGHTREEDATDAGARPDVQSRH”, the “soluble on expression in E. coli” value was “not soluble”.

Regarding “MKLIAVLNLLNQLSNKNSLEEYLNGVIDFLSGWTGCENIGIRVLREAGLAPYVVHRGFDKDFIASESCISVEGDECVCLRVLKQQFKSEDQDHISAAGTYYAPNFYRYVEELREDQLLNFRGLCAHKQFKSLAVIPLLHQGKVVGAIHIADIKDGVFSEEDIHFIETIRPLVAEAIYRHNLEKALEHHHHHH”, the “soluble on expression in E. coli” value is “not soluble”.

In the case of “SDLVITQELARAESQQDAASLKKAYELIKSANLGKSEFDPSESFSPDLFVLCAEQALKMRQPEVSEDCIQMYFKVKAPITQFLGRAHLCRAQMCAPKSAENLEEFENCVTEYMKAINFAKGEPRYYFLVYNASVLYWQMVRPFLKPGYRHHLIPSLSQIINVLSQTEEEDKEWRAELMLELLECYLQAGRKEEAARFCSTAAPFIKSHVPQKYRQIFSVMVNQRIRNRDVRSNFLKSHCSENCVEIT”, the “soluble on expression in E. coli” value is “soluble”.

On to “MAHHHHHHMDKIKSWLGFNKKIVFTENKFLLRNVNDQESLQAENVRAEDYPIPEKYLEDPDKIPKYYVFQSNMVTDEDLQPGMLRQLEVDKRLTLPTRTHISFLVTATDVIHSWSIPSLGIKADAIPGRLHKITTFILREGVYYGQCSEMCGTLHGFMPIVVEAVSPEAYAAHAKKYYKE”, for which the “soluble on expression in E. coli” value is recorded as “not soluble”.

In the case of “MAKEFGRPQRVAQEMQKEIALILQREIKDPRLGMMTTVSGVEMSRDLAYAKVYVTFLNDKDEDAVKAGIKALQEASGFIRSLLGKAMRLRIVPELTFFYDNSLVEGMRMSNLVTSVVKHDEERRVNPDDSKEDLEHHHHHH”, the “soluble on expression in E. coli” value was “soluble”.

In the case of “TSLFAQEIRLSKRHEEIVSQRLMLLQQMENKLGDQHTEKASQLQTVETAFKRNLSLLKDIEAAEKSLQTRIHPLPRPEVVSLETRYWASV”, the “soluble on expression in E. coli” value is given as “soluble”.

“MPPKKTQKSGLLQFFAKQQQEKYQNSSKNEETTEHDDSCQILFEKQVAGPSKVSKPIGFPTTPKNTTKWAETLQKSSEKAGRDWLNPFPIRVSSAKKEIEKNSKTELLAKGFDDIHGNGIFYPINEPIRNFELNLLKCLSSSNCCVALPSSSPSTPGRICAMTVFNFLKWFPRCRVLLVSSSDSWISSLRQLGLESQTTKLTTVTQFKNLKTEAGKILVCTTPQCALKVVESTGGREFLEEIRLVLMELKPNECCSKYKPILNALTVKETFFRCSVLTTSTSNASRRTASITKRQQMITNLQLSDWIEQTEADFAFRSANIPAGVEVKTWKSEDNSAKHAEITGKFEKYCEKTIDDLARQCIVSSKSVKKLIWTCWKTLKQQSKLPEIEKKKLEISEFLTCTYKLLIIDGVVAARNFVKKHSEIPHIKEHAEKILEPTIFGGFSEFPAKFQQLSDSIEAFLKMDNHVLGVILCRDSDQAIEIQNYLELQLTTRCTCVRIIEEGTHPGRNLWNIQRISTVFIDRKSPKIVILPVKIRDFIGFSDGLPLSELTFIASISRDSLFNFRRFGGAHLLIINDPLEKLRNEDGRLLVDDGKFVQNNSKNAPKMGAVERYDFKFEPSRLRIDATHLPIQFFYPRDVGVTFDETAGISQLGKTHIEMTSKEHTELFKRLQNPDFSRFQRRKRVFWVLEDLEHPNENKSIPIEEMDETQLCWNQDIQYLGEIKSSKLSERLTRYMKDEPVEWIINEKRRFEYINEITSTDRLVHLDRLLRNLDAHFQVLSSC”: the “soluble on expression in E. coli” value was “not soluble”.

Regarding “MKKRAGIWAALLLAAVMLAGCGNPADQKDSKAKQKTEVFPVTIDDASNQDVTIKKEPKKIVSLMPSNTEITYALGLGDKVVGVTTNDTYPKEVKKVEKVGDMNVNVEKVISLKPDLVLAHESSMSASADAIKQLKDAGITVLTVNDAQSFSEVYKSIEMIGEAGGAEKKADQLVKSMKSDLKDIQEKAKTISKDEEKSVFIEVSPDPDIYTTGKDTFMNEMLNVIHAKNAAADQTGWVQMTDEAIVKLNPDAIVTTDGVKAKAVEKRDGWSEINAVKHHRVYDVDPDLVTRSGPRLIEGVEELAESIYPDTFKE”, the “soluble on expression in E. coli” value is reported as “not soluble”.

With “MSLVTKGKSAQYIKDESAFEDFLIGSGLEEASLSLSSGEVRTGQDLRAVIDDALAIRTLINGLHTRYSRTVVEQAAIAGALNPDLFNDLGRANAMAETIARRLDLVAEDTERGWQGRTSTSNEGPGGYIMERTVRGVKESATLDMALLGSADARALDRYAARLGEEGHHHHHH”, the “soluble on expression in E. coli” value is “not soluble”.

Turning to “MNYYGTSMWASDNNTASNSDSSLNLLGILLLASENNKLINNTVLTNLYGVNLMAESTGIGDKTGPSENILASNIISYNLGTGILFDESYGNLIYNNSFDNIWNVEDESLNTWNSSEIGNYWSDYEGEDADGDGVGDTPYLINSHTGSMDYLPVTRSSDFPELEHHHHHH”, the “soluble on expression in E. coli” value was “not soluble”.

With “MGSDKIHHHHHHMDIELREKIAGEITLSDSPAETIRKWREEFKVSQLELSNFLNQSPSVISDYETGRRKFPSIASVRKIVDALITIDERRGGYVIKKYKSGVPSDALIDIKDYDRDVPLEKAIRAMNGKNVSHVSVERNIRGYTIVDGVKAILAFSYYEYSKLYGWSSERAIFFTDVKFGRSPMIAIRVHPLKPAAVVYIQPDNVDDLAIKLADIENIPLLITEMSPEAVSHVMSQLR”, the “soluble on expression in E. coli” value was “not soluble”.

On to “GPGSMKRHGVRLRRSIKETAVTIGCDEAGRGPLAGPVVGAAVSRIPVSSFNNEFDQLYEAPEQFQIFDSKSVSERQRDLVFAMITGHVDFFDIASCKKFVVHHCAGDEATSLTLSSKKLDSHVKLSKLPFKKLLSMQTPYLITYHGYNSAGNYVYFWSIGIANHTYIDEYNIYNASMNTMHRSAQSIWHMLSDARFSHEAAPRPRSSSIAQYLFSRFCTAANHDNEKRYQVPHHLELLKGATEYFDFEPIQPPLVLIDGHAVPGPSYDYFTSVRIGGDVQPIIEGDKRSLSIAAASCLAKVTRDELMNYIDALYPGYGFRDNKGYPVEQHMKYVAKNGLCPIHRKTYRPCRTVLEKGLQRK”, for which the “soluble on expression in E. coli” value is recorded as “not soluble”.

On to “GHHHHHHAIAENLYFQSKFLDVECLSELQRKLNDLELTDYRVRCQLEAYSCKPAGFDKKLSKSLEQKLVEQLEASPRVLEGSPVGSLEDQSARKTLINLICTLNAAHQDYDFSSLQLSRLKRVQDVRSLQQHVDSLFELFYRQLGLEFRQFLWENIGQIIRPEECEVYSYLPDYESDPYSASGALWSFCYFFYHKNMKKILFFSCTLSTRLAEDSESTESVDEEDFGKESSGLETPFAMFETVI”, for which the “soluble on expression in E. coli” value is “not soluble”.

For the sequence “MAHHHHHHMDRQVINLEEILPFSYTRDVELVPMYCFEVKKEVAKDALNIMKDYINNQLYDKYNHLKRCRKCTDSVQILIGACNHIPFELSQKLIEKMKQENNNDEFNDIIITKIMVSKYAPITRKQYIEWSTYWPLYFRKPDKDILILTKEEINKYIKLLYISIDIGKQFGTCNSGCIITYNDEIIASSGDNIKNHPLHHAPMLAIEQVSYKLRHIWLNKQTEKNNLQKKMKIIHKQQINNRDSLNDHKHENNKSNHNILIDHIPNDQYLCTNFFAFLSHEPCYMCAMALLHSRIKCVIFDKENKNNGALSSQEKLHCIKNLNHHFKVFKTIRG”, the “soluble on expression in E. coli” value is on record as “not soluble”.

As for “LKCSTVVCVICLEKPKYRCPACRVPYCSVVCFRKHKEQCNPET”, the “soluble on expression in E. coli” value was “soluble”.

In the case of “MDTDIRDFIIEDDLFDPFMDENEDDDRAEIDEEPETPLIGEPLDEWKKPVEDWRPAQVRIKDLFEEMPGQKRMMLKIIDYCREERTGEEMDVFTNDLKQYCYSVYSPVVFRELLEEAGAIEYIKPDEPEGSQDAAQSEERAQAGGELPEEAVSPHRGDVYGTLPVDDESTLVPIDGADIVHESYIEGDEEIQMDFLEITPCEPGTWKATEAGLEAVDSMDDLDGTKELLGKEPKYLDIYHQILDYCQDEYGRSSKEIDKLVNDSPLLEEPRRYSGYFVSRLEKQGALEWRNGWFVTEVGKKIIEEAAAHV”, the “soluble on expression in E. coli” value is listed as “not soluble”.
